Experiments:
amyloid-β (Homo sapiens) = amyloid-β (Homo sapiens) (UniProt P05067); settings: cited from earlier work
[1] = molecular target: recombinant extracellular domain of sortilin (UniProt Q99523); test: SPR
Sequence of recombinant extracellular domain of sortilin (Q99523 78-755): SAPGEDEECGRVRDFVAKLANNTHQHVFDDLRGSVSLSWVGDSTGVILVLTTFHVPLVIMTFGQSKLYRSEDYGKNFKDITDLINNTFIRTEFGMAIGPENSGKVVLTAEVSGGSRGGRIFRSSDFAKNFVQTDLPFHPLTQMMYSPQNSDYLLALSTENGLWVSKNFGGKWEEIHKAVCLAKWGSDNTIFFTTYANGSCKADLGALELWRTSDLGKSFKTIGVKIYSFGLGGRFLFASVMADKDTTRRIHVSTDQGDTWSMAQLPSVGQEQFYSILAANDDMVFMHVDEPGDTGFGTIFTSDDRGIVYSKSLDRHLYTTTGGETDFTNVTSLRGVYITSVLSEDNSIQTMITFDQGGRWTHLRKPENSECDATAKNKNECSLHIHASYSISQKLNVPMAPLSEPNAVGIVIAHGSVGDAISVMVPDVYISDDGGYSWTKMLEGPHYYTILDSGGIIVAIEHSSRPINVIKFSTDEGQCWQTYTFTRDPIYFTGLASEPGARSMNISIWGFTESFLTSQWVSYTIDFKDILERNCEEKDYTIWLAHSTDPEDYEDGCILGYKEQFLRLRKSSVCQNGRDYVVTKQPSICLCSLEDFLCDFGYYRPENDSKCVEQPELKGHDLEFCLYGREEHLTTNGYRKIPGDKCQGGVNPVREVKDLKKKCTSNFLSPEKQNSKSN

Sequence of amyloid-β (Homo sapiens) (P05067 672-711): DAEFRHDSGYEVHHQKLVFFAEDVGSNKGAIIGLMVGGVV

Substance	Kd (amyloid-β (Homo sapiens)) [nM]	Kd [1] [nM]
LRP1 (from UniProt Q07954)	0.57	–
recombinant human APOE2 (from UniProt P02649 19-317) (natural protein)	–	117
recombinant human APOE4 (from UniProt P02649 19-317) (natural protein)	–	114
